Assay results: publication PMC9531947, “Targeting A-kinase anchoring protein 12 phosphorylation in hepatic stellate cells regulates liver injury and fibrosis in mouse models” (eLife, 2022)

Target: T1, AKAP12 with its five activation-responsive phospho-sites deleted by CRISPR-directed HDR, human HSCs (human (endogenous locus in primary …, UniProt Q02952-1 1-1782, deletion of the five phospho-sites T675, S676, S678, S687, S688 (PDEL; limits …)
T1 construct: human AKAP12 with the region of the phospho-sites T675, S676, S678, S687, S688 deleted; The transfected cells are a mixture of edited and unedited cells; the co-precipitate with the AKAP12 antibody holds both forms; also called CRISPR-edited AKAP12; PDEL (human); source: in cell extract and fixed cells
Experiment: co-IP; extracts of primary human HSCs (cultured 0, 3 or 6 days; WT or CRISPR-edited HDR cells; negative control or Prkca siRNA A or B); AKAP12-HSP47 co-immunoprecipitation and western blot
Details: partners not purified

T1 sequence (Q02952 other isoform, or with tags, fused parts or gaps with the stated changes): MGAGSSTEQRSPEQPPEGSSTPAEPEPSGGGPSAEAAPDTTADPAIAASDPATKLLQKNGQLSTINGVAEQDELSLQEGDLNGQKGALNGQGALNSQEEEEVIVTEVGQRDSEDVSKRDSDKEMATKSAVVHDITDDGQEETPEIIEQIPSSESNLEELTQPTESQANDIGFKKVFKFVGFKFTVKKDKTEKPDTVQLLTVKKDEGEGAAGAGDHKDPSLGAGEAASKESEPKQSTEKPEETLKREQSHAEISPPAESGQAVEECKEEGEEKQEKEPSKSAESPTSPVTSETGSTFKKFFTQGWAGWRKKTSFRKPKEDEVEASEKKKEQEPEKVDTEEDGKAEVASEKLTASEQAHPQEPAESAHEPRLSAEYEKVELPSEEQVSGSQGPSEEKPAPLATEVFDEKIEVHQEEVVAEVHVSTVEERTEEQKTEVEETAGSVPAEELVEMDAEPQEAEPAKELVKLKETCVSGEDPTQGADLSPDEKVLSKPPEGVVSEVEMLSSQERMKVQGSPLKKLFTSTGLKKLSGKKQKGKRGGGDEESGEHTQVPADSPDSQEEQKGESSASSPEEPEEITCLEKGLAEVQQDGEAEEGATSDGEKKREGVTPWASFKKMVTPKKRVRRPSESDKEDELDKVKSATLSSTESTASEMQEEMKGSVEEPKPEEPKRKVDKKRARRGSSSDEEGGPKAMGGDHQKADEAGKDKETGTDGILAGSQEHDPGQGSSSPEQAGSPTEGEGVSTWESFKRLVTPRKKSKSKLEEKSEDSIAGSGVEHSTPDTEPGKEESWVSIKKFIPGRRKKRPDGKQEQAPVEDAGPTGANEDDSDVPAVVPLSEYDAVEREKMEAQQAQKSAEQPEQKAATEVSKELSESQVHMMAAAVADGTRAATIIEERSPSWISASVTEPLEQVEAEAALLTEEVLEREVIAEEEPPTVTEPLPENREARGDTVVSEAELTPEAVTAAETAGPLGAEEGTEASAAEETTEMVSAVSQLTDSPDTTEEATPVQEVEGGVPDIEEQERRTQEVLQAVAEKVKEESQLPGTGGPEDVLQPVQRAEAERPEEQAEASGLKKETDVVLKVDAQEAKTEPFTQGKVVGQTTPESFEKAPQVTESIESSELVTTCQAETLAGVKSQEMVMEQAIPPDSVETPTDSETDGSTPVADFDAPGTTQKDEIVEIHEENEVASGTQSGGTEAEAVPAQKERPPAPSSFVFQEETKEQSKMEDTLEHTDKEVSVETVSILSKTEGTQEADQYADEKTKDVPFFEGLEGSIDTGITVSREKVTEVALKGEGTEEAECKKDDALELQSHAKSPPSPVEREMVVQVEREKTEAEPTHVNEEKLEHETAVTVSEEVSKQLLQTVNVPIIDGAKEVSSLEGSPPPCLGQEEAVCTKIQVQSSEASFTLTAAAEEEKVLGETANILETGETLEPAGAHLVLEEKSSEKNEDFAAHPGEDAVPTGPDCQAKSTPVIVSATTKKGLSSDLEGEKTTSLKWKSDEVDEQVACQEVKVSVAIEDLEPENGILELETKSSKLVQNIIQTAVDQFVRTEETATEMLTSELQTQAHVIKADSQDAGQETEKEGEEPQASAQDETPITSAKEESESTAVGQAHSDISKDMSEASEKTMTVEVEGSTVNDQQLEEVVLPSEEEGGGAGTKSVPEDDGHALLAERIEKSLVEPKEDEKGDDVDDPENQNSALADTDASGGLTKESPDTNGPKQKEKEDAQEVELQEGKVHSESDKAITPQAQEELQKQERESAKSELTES

fold change of the AKAP12-HSP47 co-immunoprecipitate against WT cells: 2.5 fold
B1: heat-shock protein 47 (HSP47), human, endogenous (natural protein, UniProt P50454 19-418, looked up)
chain: AEVKKPAAAAAPGTAEKLSPKAATLAERSAGLAFSLYQAMAKDQAVENILVSPVVVASSLGLVSLGGKATTASQAKAVLSAEQLRDEEVHAGLGELLRSLSNSTARNVTWKLGSRLYGPSSVSFADDFVRSSKQHYNCEHSKINFRDKRSALQSINEWAAQTTDGKLPEVTKDVERTDGALLVNAMFFKPHWDEKFHHKMVDNRGFMVTRSYTVGVMMMHRTGLYNYYDDEKEKLQIVEMPLAHKLSSLIILMPHHVEPLERLEKLLTKEQLKIWMGKMQKKAVAISLPKGVVEVTHDLQKHLAGLGLTEAIDKNKADLSRMSGKKDLYLASVFHATAFELDTDGNPFDQDIYGREELRSPKLFYADHPFIFLVRDTQSGSLLFIGRLVRPKGDKMRDEL
notes: heat-shock protein 47 (HSP47), ER-resident collagen chaperone, human, endogenous in primary HSCs and liver tissue; source: endogenous, primary human HSC extracts and fixed cells; human liver tissue array
